Source: patent US20190345557
Substitutions are numbered along the chain they refer to.

B1: Human full-length ARHGEF26 (wild-type) with N-terminal His-SUMO tag (protein)
chain: MDGESEVDFSSNSITPLWRRRSIPQPHQVLGRSKPRPQSYQSPNGLLITDFPVEDGGTLLAAQIPAQVPTASDSRTVHRSPLLLGAQRRAVANGGTASPEYRAASPRLRRPKSPKLPKAVPGGSPKSPANGAVTLPAPPPPPVLRPPRTPNAPAPCTPEEDLTGLTASPVPSPTANGLAANNDSPGSGSQSGRKAKDPERGLFPGPQKSSSEQKLPLQRLPSQENELLENPSVVLSTNSPAALKVGKQQIIPKSLASEIKISKSNNQNVEPHKRLLKVRSMVEGLGGPLGHAGEESEVDNDVDSPGSLRRGLRSTSYRRAVVSGFDFDSPTSSKKKNRMSQPVLKVVMEDKEKFSSLGRIKKKMLKGQGTFDGEENAVLYQNYKEKALDIDSDEESEPKEQKSDEKIVIHHKPLRSTWSQLSAVKRKGLSQTVSQEERKRQEAIFEVISSEHSYLLSLEILIRMFKNSKELSDTMTKTERHHLFSNITDVCEASKKFFIELEARHQNNIFIDDISDIVEKHTASTFDPYVKYCTNEVYQQRTLQKLLATNPSFKEVLSRIESHEDCRNLPMISFLILPMQRVTRLPLLMDTICQKTPKDSPKYEVCKRALKEVSKLVRLCNEGARKMERTEMMYTINSQLEFKIKPFPLVSSSRWLVKRGELTAYVEDTVLFSRRTSKQQVYFFLFNDVLIITKKKSEESYNVNDYSLRDQLLVESCDNEELNSSPGKNSSTMLYSRQSSASHLFTLTVLSNHANEKVEMLLGAETQSERARWITALGHSSGKPPADRTSLTQVEIVRSFTAKQPDELSLQVADVVLIYQRVSDGWYEGERLRDGERGWFPMECAKEITCQATIDKNVERMGRLLGLETNV
B2: Human full-length ARHGEF26 29Leu mutant (p.Val29Leu) with N-terminal His-SUMO tag (protein)
chain: B1 chain with V29L

Target: Human RhoG (residues 1-188) with N-terminal His-SUMO tag, pre-loaded with GDP, P84095
Sequence (P84095 1-188): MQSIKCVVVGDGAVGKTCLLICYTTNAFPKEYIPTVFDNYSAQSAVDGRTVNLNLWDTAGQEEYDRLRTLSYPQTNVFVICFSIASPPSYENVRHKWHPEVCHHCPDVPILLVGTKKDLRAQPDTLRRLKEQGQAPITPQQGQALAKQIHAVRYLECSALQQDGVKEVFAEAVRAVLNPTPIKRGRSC

Protein | nucleotide exchange activity (GTP-GDP nucleotide exchange assay, MANT-GTP fluorescence, 60 minutes)
B1 | we observed no significant difference in nucleotide exchange activity between wild-type and 29Leu mutant ARHGEF26
B2 | we observed no significant difference in nucleotide exchange activity between wild-type and 29Leu mutant ARHGEF26
